Results reported in IntAct's records for PubMed 26418745.

B1: ALK tyrosine kinase receptor (Homo sapiens), Q9UM73 (parent)
chain: MGAIGLLWLLPLLLSTAAVGSGMGTGQRAGSPAAGPPLQPREPLSYSRLQRKSLAVDFVVPSLFRVYARDLLLPPSSSELKAGRPEARGSLALDCAPLLRLLGPAPGVSWTAGSPAPAEARTLSRVLKGGSVRKLRRAKQLVLELGEEAILEGCVGPPGEAAVGLLQFNLSELFSWWIRQGEGRLRIRLMPEKKASEVGREGRLSAAIRASQPRLLFQIFGTGHSSLESPTNMPSPSPDYFTWNLTWIMKDSFPFLSHRSRYGLECSFDFPCELEYSPPLHDLRNQSWSWRRIPSEEASQMDLLDGPGAERSKEMPRGSFLLLNTSADSKHTILSPWMRSSSEHCTLAVSVHRHLQPSGRYIAQLLPHNEAAREILLMPTPGKHGWTVLQGRIGRPDNPFRVALEYISSGNRSLSAVDFFALKNCSEGTSPGSKMALQSSFTCWNGTVLQLGQACDFHQDCAQGEDESQMCRKLPVGFYCNFEDGFCGWTQGTLSPHTPQWQVRTLKDARFQDHQDHALLLSTTDVPASESATVTSATFPAPIKSSPCELRMSWLIRGVLRGNVSLVLVENKTGKEQGRMVWHVAAYEGLSLWQWMVLPLLDVSDRFWLQMVAWWGQGSRAIVAFDNISISLDCYLTISGEDKILQNTAPKSRNLFERNPNKELKPGENSPRQTPIFDPTVHWLFTTCGASGPHGPTQAQCNNAYQNSNLSVEVGSEGPLKGIQIWKVPATDTYSISGYGAAGGKGGKNTMMRSHGVSVLGIFNLEKDDMLYILVGQQGEDACPSTNQLIQKVCIGENNVIEEEIRVNRSVHEWAGGGGGGGGATYVFKMKDGVPVPLIIAAGGGGRAYGAKTDTFHPERLENNSSVLGLNGNSGAAGGGGGWNDNTSLLWAGKSLQEGATGGHSCPQAMKKWGWETRGGFGGGGGGCSSGGGGGGYIGGNAASNNDPEMDGEDGVSFISPLGILYTPALKVMEGHGEVNIKHYLNCSHCEVDECHMDPESHKVICFCDHGTVLAEDGVSCIVSPTPEPHLPLSLILSVVTSALVAALVLAFSGIMIVYRRKHQELQAMQMELQSPEYKLSKLRTSTIMTDYNPNYCFAGKTSSISDLKEVPRKNITLIRGLGHGAFGEVYEGQVSGMPNDPSPLQVAVKTLPEVCSEQDELDFLMEALIISKFNHQNIVRCIGVSLQSLPRFILLELMAGGDLKSFLRETRPRPSQPSSLAMLDLLHVARDIACGCQYLEENHFIHRDIAARNCLLTCPGPGRVAKIGDFGMARDIYRASYYRKGGCAMLPVKWMPPEAFMEGIFTSKTDTWSFGVLLWEIFSLGYMPYPSKSNQEVLEFVTSGGRMDPPKNCPGPVYRIMTQCWQHQPEDRPNFAIILERIEYCTQDPDVINTALPIEYGPLVEEEEKVPVRPKDPEGVPPLLVSQQAKREEERSPAAPPPLPTTSSGKAAKKPTAAEISVRVPRGPAVEGGHVNMAFSQSNPPSELHKVHGSRNKPTSLWNPTYGSWFTEKPTKKNNPIAKKEPHDRGNLGLEGSCTVPPNVATGRLPGASLLLEPSSLTANMKEVPLFRLRHFPCGNVNYGYQQQGLPLEAATAPGAGHYEDTILKSKNSMNQPGP
partner: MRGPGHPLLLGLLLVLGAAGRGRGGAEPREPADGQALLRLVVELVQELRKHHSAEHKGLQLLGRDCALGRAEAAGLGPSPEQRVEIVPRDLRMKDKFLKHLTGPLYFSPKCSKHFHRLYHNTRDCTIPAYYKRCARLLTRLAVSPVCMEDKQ

Variants of: B1
Settings: with alkl2_human ALKAL2, Q6UX46

Variant | effect of a mutation on the interaction
G823D | disrupting interaction strength
G740D | disrupting interaction strength

Other lines, results leading:

effect of a mutation on the interaction | Variant
disrupting interaction strength | G893E
disrupting interaction strength | G934D
